Experiment: yeast display, Sf9 membrane polyspecificity reagent, FACS + sequencing; frameworks hold sequencing errors
Outline: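 Galactose-induced (36–48 hours) yeast carrying a synthetic nanobody display library were exposed to 10% biotinylated, detergent-solubilized Sf9 membrane reagent at 4 °C for 1 hour. FACS followed streptavidin microbead enrichment, using low and high (top ~1%) gates for expression (anti-HA) and reagent binding (streptavidin). Colony PCR, MiSeq 2 × 250 sequencing and CDR-length filtering followed. Labels for polyreactivity reflect the gate of origin.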

| Sequence | polyreactivity (PSR sort gate) |
| --- | --- |
| QVQLVESGGGLVQAGGSLRLSCAASGSICISYAMGWYRPAPGKERELVAAINYSGGSTYYADSVKGRFTISRDNAKNTVYLQMNSLKPDDTAVYYCAKRSTYRYYGYKLRDYWGQGTQVTVSS | low polyreactivity |
| QVQLVESGGGVVQAGGSLRLSCAASGIIFYRYAMGWYRQAPGKERELVARITNGGNTYYADSVKGRFTISRDNAKNTVYLQMNSLKPEDTAVYYCAVRVFGYSPYSNWMYYWGQGTQVTVSS | high polyreactivity |
| QVQLVESGGGLVQAGGSLRLICAACGYTFEHYAMGWYRQAPGKERELVAAITRSGGSTSYADSVKGRFTISRDNAKNTVFLQMNRVKPEDTAVYYCAADSIRYFDYDYWGQGPQVTVSS | low polyreactivity |
| QVQLVESGGGLVQAGGSLRLSCAPSGSIFDYYVRGWSRQAPGKERELVAAISWSGASTYYADSVKGRFTISRDNAKNTVYLQITSLKPEDTAVYYCAADYGVNTLIDYDYWGQGTQVTVSS | low polyreactivity |
| QVQLVESGGGLVQAGGSLRLSCAASGSIFPHNAMGWYRQAPGKERELVAAISWRDVITYYADSVKGRFTISRDNAKNTVYLQMNSLKPEDTAVYYCAAELRVYGVDYEYWGQGTQVTVSS | high polyreactivity |
| QVQRVESGGGLVQAGGSLRLTCAASGYTSLWYGMGWSRQAPGKERDLVAAISSSGNTNYADSVKGRFTISRDNAKNTVYLQMNSLKPEDTAVYYCAVELKQVTPGLGYITLDYWGQGTQVTVSS | low polyreactivity |
| QVQLVESGGGLVQAGGSLRLSCAASGSILYYYVMGWYRQAPGKERELVAAITSGGSTYYADSVKGRFTISRDNAKYTVYFQMIILKPEDTAVFYCAVGYVLTGVFQARFDYWGQGTQVNVSS | high polyreactivity |
| QVQLVESGGGLVQAGGSLRLSCAASGIIFSFYAMGWYRQAPWKERELVAAISSGGNTNYADSVNGRFTISRDNAKNTVYLQMNSLKPEDTAVYYCAAGYYIWSTYDYWGQGTQVTVSS | low polyreactivity |
| QVQLVESGGGLVQAGGSLRLSCAASGRILGFNVMGWYRQAPGKERELVAAITTSGGSTYYADSVKGRFTISRDNAKNTVYLQMNSLKPEDTAVYYCAARYRRFRFTHYDYWGQGTQVTVSS | high polyreactivity |
| QVQLVESGGGLVQAGGRLRLSCAASGTIFDFYAMGWYRQAPGKERELVATITASGGSTYYADSVKGRFTISRDNAKNTVYLQMKSLKPEDTAVYYCAAVGPHWYGQGWALYRFEYWGQGTQVTVSS | low polyreactivity |
| QVQLVESGGGLVQAGGSLRLSCAPSGITFTHYVMGWYRQAAGKERELVAAITSGGRTNYADSVKGRFTISRDNAKNTVYLQMNSLIPEDTAVYYCNAVKRVGDYWGRSFDYDYWGQGTKVTVSS | high polyreactivity |
| QVQLVESGGGLVQAGGSHRLSCAASGLTLYQYTMGWYRQAPGKERELVAAITTSGSTYYADSVKGRFTISRDNEKNTVYLQMNSLKPEDTAVYYCAAVVYYVDTLSGYRYGYDYWGQCTQVTVSS | low polyreactivity |
| QEQLQESGGGLVQAGCSLRLSCAANGYIFSVEYMGCYCLAPGKEREFVATINYDTSTYYADSVKGRFTISRDNAKNTVYLQMNSLKPEDTAVYYCAAYFYAYRSPGYWGLGTQVTVSS | high polyreactivity |
| QVQLVESGGGLVQAGGSLRLSCAASGGTIYGYAAMGWYRQAPGKERELVAAISRSGGRTYYADSVKGRFTISRDNAKNTVYLQMNSRKPEDTAVYYCAARRAYSRPPRDYWGQCTQVTVSS | high polyreactivity |
| QVQLVESGGGLVQAGGSLRLSCAASGSTFVWYAMGWYRQAPGKEREFVAAITNSGGSTYYADSVKGRFTISRDNAKNTVYLQMNSLKPEDTAVDYCAKDRYYYRGAYHEYNYWGQGTQVTVSS | low polyreactivity |
| QVQLVESGGGLVQAGGSLRLSCAASGKTFPANAMGWYRPAPGKERELVADISVSDGSTYYADSVKGRFTISRDNAKNTVYLQMNSLKPQDTAVYYCNARKRPNFYVKSFTQIGGRFDYWGQGTQVTVSS | low polyreactivity |
| QVQLVESGGGLVQAGGSLRLSCAASGSTFAYYAMGWYRQAPGKEREWVAGISGSGGSTYYADSVKGRFTISRDYAKNTVYLHMNSLKPEDTAVYYCAVVQRSKRTYPWYDYWGQGSQVTVSS | low polyreactivity |

From the nanobody polyreactivity screen of Harvey et al. (2022)
